In US7709002 (US Dept. of Health and Human Services, dated 2010) one finds MFI data, which are given here for one molecule.

Assay [1] has as its target HLA-A2 (human). The assay is described as follows: T2 bioassay (peptide 50 µg/ml + b2m 3 µg/ml, overnight), flow cytometry, stained with pan class I MAb W6/32.
In assay [2] the target is HLA-A2 (human). Briefly: T2 bioassay (peptide 50 µg/ml + b2m 3 µg/ml, overnight), flow cytometry, stained with anti-HLA-A2 MAb.

B1: wild-type ras5-14(Gly12) peptide (peptide)
peptide: KLVVVGAGGV
notes: also called ras5-14(G12); normal ras 10-mer
In the case of B1, the MFI is 523 with HLA-A2 [1] and 285 in the assay with HLA-A2 [2].
